From a protein production outcome set (Wang et al. 2014)

Assay: label from the status in PepcDB records

Row | Sequence | protein production
1 | MSLNNQDISIGKLSRLKIWITDNHLSDDQWSNTKKFIIIKITTEDGIEGWGEAFSINFREKGIAIIIKELFREISNIPNLSIKSFYNKISLLSDGHRGLDFSSATSAIEIALWDISGKLKNLPLNSLLTKSPKPNVPIYATCWSDLKKDTNDYLRQIEKFYGKKYGGIKIYPMLDSLSISIQFVEKVREIVGDELPLMLDLAVPEDLDQTKSFLKEVSSFNPYWIEEPVDGENISLLTEIKNTFNMKVVTGEKQSGLVHFRELISRNAADIFNPDISGMGGLIDIIEISNEASNNGIFISPHCWNSMSVSASAMLHVCSSIPNSEKAEIFPDYINFSKKFCELPFDIIDNKAHINKSAGLGIVIHEDILSELSIYSLDEKSNDEGHHHHHH | not failed
2 | MLYHLVMLEPEGEGAMDRIMEAMAILDGLAPELPGLTEFRHGPNRDFEQKSERYPYGFLCTFTDKAALDAYAVHPTHQRAGGMLVASCRNGADGILVVDLEV | not failed
3 | MKRIFSLLEKTWLGAPIQFAWQKTSGNYLAVTGADYIVKIFDRHGQKRSEINLPGNCVAMDWDKDGDVLAVIAEKSSCIYLWDANTNKTSQLDNGMRDQMSFLLWSKVGSFLAVGTVKGNLVIYNHQTSRKIPVLGKHTKRITCGCWNAENLPALGGEDKMITVSNQEGDTIRQTQVRSEPSNMQFFLMKMDDRTSAAESMISVVLGKKTLFFLNLNEPDNPADLEFQQDFGNIVCYNWYGDGRIMIGFSCGHFVVISTHTGELGQEIFQARNHKDNLTSIAVSQTLNKVATCGDNCIKIQDLVDLKDMYVILNLDEENKGLGTLSWTDDGQLLALSTQRGSLHVFLTKLPILGDACSTRIAYLTSLLEVTVANPVEGELPITVSVDVEPNFVAVGLYHLAVGMNNRAWFYVLGENAVKKLKDMEYLGTVASICLHSDYAAALFEGKVQLHLKAKSWMLTKNVRLGFSQQWMISAVSYAMP | failed
4 | QGKLLELVTFVPTEYADAVRQALWQAGAGRLGHYDCCSFSHAGTGTFRAAEGANPFVGAISELHHEAEERISLVLPAYRQGTVLQALHAAHPYELPAVSLIPLANDHPSAGGGIVGDLPSPISEREMLLHIKEVFGLKVLSHSAWRERPLRRMAICGGSGAFMWRRAAQEGADLFLTGEAKYNDFFDAGEHLLLVTIGHYESEEVANELFMRIISQKFPTFATHKSSVATNPVNYL | failed
5 | DGRCISLLKILMTNFCIFDCAYCVNRVSSRVERARFSVEEVVTLTVEFYRRNYIEGLFLSSGIIRSPDDTMADMVRIAKTLREREHFRGYIHLKTIPDAAPELIEQAGLYADRLSINVELPTEAGLDRFAPEKSATGIRKAMAEVRLKREASREPSFSGRRPSRFA | failed
